Test: soluble on expression in E. coli; label from the status in PepcDB or PDB records

Soluble on expression in E. coli, not soluble:
MGSDKIHHHHHHMSFMDQIPGGGNYPKLPVECLPNFPIQPSLTFRGRNDSHKLKNFISEIMLNMSMISWPNDASRIVYCRRHLLNPAAQWANDFVQEQGILEITFDTFIQGLYQHFYKPPDINKIFNAITQLSEAKLGIERLNQRFRKIWDRMPPDFMTEKAAIMTYTRLLTKETYNIVRMHKPETLKDAMEEAYQTTALTERFFPGFELDADGDTIIGATTHLQEEYDSDYDSEDNLTQNGYVHTVRTRRSYNKPMSNHRNRRNNNPSREECIKNRLCFYCKKEGHRLNECRARKASSNRS
MGSDKIHHHHHHMSGETLYQQLVNEWMELIRNGTVRPGERLPSVRKACAMHKVSPSTILQTYRMLEDRGLIEARPQSGFYVKSAASLPLPRMRRQSAAHHTGEVVDQIEAVMGVQSQADFIDLALASPRGSDFYPTTRFKHIMGRLLRQHPELTTDYPFPPGSERLRRQIAQRAVNWGCVLAADELVISNGCTEALQLALRAVCKPGDTVGVESPTYFALLPMLKDLGLAVIEIPTHPTSGLALDALELLLSEKRLNAVVAMPTVHNPLGSTMPPEAKRRLAQLVNDYQVPLIEDVPHAELFYGASTPDAVKAYDRDGWVLLCSSYSKTLAPGFRIGWIAPGRFLSEVRRLKFSSSLGQPALLEETLAEYLESGGYDHHLRLLRRHFISQMEKLRGAVAQHFPDGTRATLPSGGCLLWVELPSHADTMQLFRAALAERITVVPGAMYSAKGRYRNCLRLSCCYPWNEAYQRALIRVGELAGELAEGH
MGSDKIHHHHHHMSIIYRRRSIRKYQKKDVPDELVKEIIRAAMHAPSACNQQPWHFVVIRNEETKKKIAEIHPHAQMSAEAPVVILVCGDPTLEKCKGYWIQDCSAAVENLLLRATELGLGAVWCGVYPREERVKAFRELLGIPEHVVPFALVPVGYPAEHPVQVDRFKPERIHYEKW
MGSDKIHHHHHHMSIKSGFVALAGKPNVGKSTFINAVMGRKVVIVSDKPQTTRNRINCIYTDKDSQIIFVDTPGIHKPLHRLGEYMVKAAVQALKGVDLVLFMLDAADGFTKTDEHVAKIVNDSGTKTIIAVNKIDVAGEEKAKAVGELAKSMVENVVSVHYISALKGEGVFEVLEKIKEELPEGPQYYPEDMVTDRPLSFMAAEIIREKIFHLTRQEVPHSTAVVIEEIKDRPNGVLYIRANIYVERDSQKGILIGKNGSMIKKIGTLAREELEFLVGRKVYLDLNVKVKEKWREKDFIILQEIGLKDDIK
MGSDKIHHHHHHMSINDKEKKKLQRAILIIACEVARICKKNDIPYFINGGTQIGAVRHNGFIPWDDDFDIGFKRKDYEKFIKACDKDLNKDKFFLQTPETEEYYAFDFAKLQLKGTEIIEDFSKNVKIQHGIFVDLFPHDNIPDCKLKRKLFLFKNHLMKNILWVKCGYGEKKHKSKLSYKMVKFVSKFFSIKQIKQSRSKLLDKYNNTKTTQCIISDYPNDLIMNSWLDDLQLFRFEEVEFYGIKQYDAYLKSLYGDYMSLPPESERIVHSNYKIDFGLYDGLLEDMLYGNNI
MGSDKIHHHHHHMSITKRIRDNQRNTVLSPVPPFPKSMMLEPSNACNHACRFCGNNRSGIKRVNIPVDFARDILAQAAALGVEEVGLYLRGEPFLHPRLNEIVSYAKASGIGYVYLSSNGGCGTTEAYEAVLEAGLDSFKFSINAGNRQDFKAIHGKDDFEKVVERLRWLIAYREATGLDFKIYVSSTFIDATRGAILAMRDEFAPLVDEYYVHGTCPVPGVKSTDLDHGFSLPCPMVFNRVHVTAEGYLNACCFDFENALAVADLTRVPLNDAWASPLFEDLRRKHLMRNAKGVLCGNCVAGGGVEYEPLVMEFMSRSKRHENP
MGSDKIHHHHHHMSKAKELTPEQFRKMQLTELDMLVEFDKVCRKHNINYVLFGGSLLGAVRHKGYIPWDDDADIGMLREDYDTFKKYASEMNSEICYFQDHDTDPEYRWGYGKLRRTNTIYVRVGQEHLKNKTGIFVDVFPMDDVPLSTLGQIVQDRKVYCLRKILWSEVARVQSTGFMKLWYSVLAKIPVEWVFSRLNKYAVKSKNITPNRVRCLSFPATGTLYKKNSLKTRYSMPKSWFTNRAEYLFEGRLLYSSKEYDEVLKYIYGKYMELPPKDKREQHSPFSKIKFQDEEMIV
MGSDKIHHHHHHMSKIVALYNNKGGVSKTTTNFNLGVYLSQQGKRVLMVDCDPQCNLTELFFASRDDLEEPDVQLPGTSIYDALLPRFKGHQGRIEQSGIEVSEHSLYSSLFLFRGDLEFSRAETYLGTSWSQAVTENIHEKNTYIVFNKLMKDIGSARGYDYILCDVGPSTGAITKTVIISCDEIVIPLVPDRFCYQAVKLLGSVISEWIENHKIISDSLVPFGIEPFEGNPKLAGTVLQNFKVHAGSKVKESYIKWQKKITEEIQSSLCKENGFSPKVGFNIEEPYTASIKDVAVLAPVAQLFGRAIFDIEQEHTKEASSNGQMYYGTVWQPWLDRMSEYKEEIAKIAEAIS
MGSDKIHHHHHHMSKKFNCSIKRIRFDENYRPADSTRLTTNFANLARGEHREENLRKTLRMINNRFNALAHWDNPTADRYSVEVDIISIDMDVAGNGHTFPVIETLKTTIVDHKENTRIDGMMGNSFSSYVRDYDFSVVLPEHFNNHSTSPVSAPPEDFGDLHGKLFQYLLNSEAYKAQFNNKLVICLSVSTSKTYHRTTNQHPVLGVEYKQDDYSLTDDYFHKMGLTVRYFMPANSAAPLAFYFAGDLLTDYTDLELISAISTMETFQKIYRPEIYNANATAGEVYQPSLKYQDYSLTQIVYDRAERSQMAVKQGKFTEEQFIKPYQAILEEWAASYDVASKKNLHQ
MGSDKIHHHHHHMSKPSPRHLWHVQPGSNVITHPLKQSHYLNVELMSLEIVAEYPRPPALVACSDHVIVEALGTRICETHDCLRVLETFHPPTYYLPPKAMRKDLLIRSRRSSFCEWKGIANYWDLVIADKRLEGAIWSYPDPTPTFRALTGWYALYPGRMDHCSVNGETVIPQPGQFYGGWITSQVVGPFKGDPAHPQLI
MGSDKIHHHHHHMSKRLMPSTTALQCFEAAARHLSFTRAAQELHLTQSAVSKQVAQLEDMLSHSLFQRIRRRLHLTPAGALYLTEVNKILTQIDISSRYILSYGDETEVLRIATQPTFGARWLVPRLKGFGDRYPRIHLDVRNELEPFDLVQAKADVAFFFGQGTWPGATCIELFSEEVVPVCSPQLLASHRFDSAQALTEHRLLQCVSRPEAWHEWFLGLGLHSQNSYHGPRFDTFYLCIRAAISGCGIALIPRYLVAEELSEGKLVVAWDHPVASNGRHFIAHAEHAAEVPKIRAFVQWIRERVAEGD
MGSDKIHHHHHHMSLALQYFKALSDETRLRLIHVLNRHELSVNELVSILEMGQSRVSRHLKILTGAGLLTSRRDGLWVFYSAAAEGDGRAFLDAVTPFVTTDMVLQADLDMAQKIIEERALKTRQFFNAIAEDWDELNREVLGGFDLAGAVAEAMPQCETAVDLGCGTGSVIERMLQRSQQVIGVDGSPRMLELARRRFVEGAERVSLRIGELDHLPLRDGEADFASINMVLHHLSDPGVALGEIRRVLRLGGQLMVTDFDRHDNERMRSDYGDRWLGFEGVQLEGLLREAGFTVRECRRQGVAKGLALHLMLAEKTQQ
MGSDKIHHHHHHMSLANRTTSSAYRLFNLRLESKTLLSPSLARCVFTGPEVRQMKLDAPDQRIKLLFASESGELTPMTVSDTWYQDYLALPRERRPILRTYTLRSVSRDLQQATIDFVLHGDTGPASSWAGHAKPGDALQIVAPNAEADGASGGYEWAPHDGVEQVLLIADETALPAAMGILEQLATQPSPPSVQAFFEVPKAADCVTPSDFPFAQIHWLPREETGSTIWGERLLYAVQQDVKIPASACINRDDIAQETPEDELLWERATAHRPFYAWVAGESSAIKRLRRYLLDERHLDKETINFMAYWSHR
MGSDKIHHHHHHMSLASFNPRVARLATPPIPSVFGWGRAYDAAAGPLIDLSQAAPGHPPHADLLAWLAQAAGSAEACGYGAIEGELVLRRAYCTHLSELYGAAFTPEQIHITAGANQAFICAAMALAGAGERIALTDPFYFNHDTTLAMLGIETVALPCDSDNGFLPDLDRAEQVVKSGIKALALVTPNNPTGAVYPKELLADLYRLCRAHGVWLIVDETYRDFLNPEFGRPHELFSQPDWPEGLIQIYSFSKSFAIPGHRLAAICAGGPVVEQIAKIMDNLQICAPRAAQIALAKALPVLDGWRAENAAEIARRTVALRRAFDLVPQWHLASIGAYFAFARHPFGQAASIDVAEQLARRAGILAVPGGFFGSRQEGYLRLAFANVDCPTIETLPDRLRTFTLAG
MGSDKIHHHHHHMSLEAPDLLRIRALPLFEAVNDGAFDRLMRGAFLQRFPRGSQLTTQGQPDNFLFVLLEGAIELEGSSSDRESTLALLWPSASLCLASIVLDGPSLMTARTTKGSLILMVPGDAFRQALEEDAGLGRAVAEELAGCFSGAVRSLKNNKLRTARERLVSYLLAQHQRQGGGAVVKLPCRKRVLASLLGMTPENLSRAFASLGPHGVEIDGSTVTLREPEGLAQLARPDPMIDNPIGESFSQAERERRRGGRTAIAAH
MGSDKIHHHHHHMSLHYSVLASGSTGNALYIESEQTRLLVDAGLTGKAMLALFDQIHRSPEKIDGLFVTHEHSDHIKGVGIMARKYNIPLYANEKTWAAMEAKIGKIDPALKFLWEVGEVKQFGDIEVESFNVSHDAADPMFFQFAHEGKRLAHITDTGYVSDRMKGVIRGADAYIFEANHDIGMLQMGHYPWSVKRRILGDYGHVSNEDAAIAMSEVLDDRTKRIHMAHLSKDNNMKELARMSVSQTLASRDVDLSKIQLLDTDPVIPTPLLKL
MGSDKIHHHHHHMSLILELKNISKHYPGVKALETVSLRLFSGEVHALLGENGAGKSTLVKVMTGAQSKDGGEIIFLNEKQHFNTPIEAQKIGISTVYQEVNLVPNLTVAQNLFLGHEPKRFGLIHFQKMYADARTVLTQFKLDIDVSAPLSSYSIAVQQLIAIARGVAMSAKVLVLDEPTASLDADEVQVLFGILNQLKQKGVAIVFITHFLDQVYQISDRITVLRNGRFIGEYLTSELPQPQLIEAMLGRSLQQHLVEKTSAEQTTNGTSAVLLSLEGVSVKGSIQSMNLTVPKGQAVGLAGLLGSGRSEVCNAVFGLDLLDSGSIHLAGKKLHLSHPVDAINAGIALCPEDRKVDGIIGPLSIRENIILALQARVGWWRCLSKTRQQEIAQFFIDKLQIATPDADKPIEQLSGGNQQKVILARWLAIEPILLVLDEPTRGIDIGAHAEIIKLIRTLCDDGMSLLVASSELDELVAFSNKVVVLRDRYAVRELSGSELTSQHVMQAIAEG
MGSDKIHHHHHHMSLQISLVNNISQIGSQAWHALFGSEHPFTRYEYLLALESSGACSAQTGWQPRHLIVIEKAAVTENPHSAAAKTDNILALMPLYEKHHSYGEYVFDWAWAEAYERHGLAYYPKLLCAVPFTPVTGTRLAMDSRLDVGQQDAVWTAVVDFLQQQIMTQGYSSWHYLFTNATQSAVLAQAHLTPPSQSQSNQAQRNQTQALQPQANSQASAIKGQPIARLGTQFHWFNRGYRQFDDFLQVMTSRKRKNIQKERAAISKFELSFEFIHGDNITSSQWRSFSLCYQQTYLKRSGHTGYLNSEFFQAIGTSMADAIRLLRVSDKAGKDIAYALYFASDSRLYGRYWGAFEDIPGLHFEACYYQGIEYAIAQGLSCFDAGAQGEHKVLRGFEPIETHSFHAIAHEGFKGAIEDFCQQERRNMQIYMAEQAKNLPYKNSQ
MGSDKIHHHHHHMSLQRPDEKLKSDVLIGVGLRHQHFTEALTTPSNIDFVEVHSENFFAQGGATQSVLAQASEKYAISLHSTAMGLGSAQGVPSHYLQKLKQLASTCNPILMSDHACFSWSQLKGQQVHAGDLLPLAYSEQTLMVLSHNIDRVQQSLGRSLLVENLSAYIQYSHACMPETEFLVRLAELTGCKLLVDLNNIIVTANNINAAQPLDYAQQWLAEIPTDMVGEIHLAGFTEVKEGELIIDDHSQAVSSQGWQLYRSALERFGKIPTLVEWDNNLPSWHTLVAEADKARMIAKQVFGDNNSSKITTAMTGLESEFIHE

Source: the DeepSol protein solubility set
